Assay results: article PMC8594432, “One-step, kit-based radiopharmaceuticals for molecular SPECT imaging: a versatile diphosphine chelator for ^99mTc radiolabelling of peptides” (Dalton Transactions (Cambridge, England : 2003), 2021)

Assay type: physicochemical
Source text: Reaction of RGD with BMA[21,22] in a basic solution of DMF followed by semi-preparative reverse-phase C18 HPLC provided the diphosphine conjugate DP-RGD (Scheme 1) in ≥95% purity and 86% yield. DP-RGD was characterised by ^1H, ^13C and ^31P NMR, analytical HPLC and HR-ESI-MS (Fig. S1–S6 and Tables S1, S2 ^†).

## N=C(N)NCCC[C@@H]1NC(=O)[C@H](CCCCNC(=O)/C(=C(\C(=O)O)P(c2ccccc2)c2ccccc2)P(c2ccccc2)c2ccccc2)NC(=O)[C@@H](Cc2ccccc2)NC(=O)[C@H](CC(=O)O)NC(=O)CNC1=O [DP-RGD]
  stability in acidic solutions (in words): decomposed to re-form RGD and BMA
  stability to oxidation in solution (in words): slowly oxidised in solution to phosphine oxide derivatives
  stability to oxidation in the solid state (in words): stable to oxidation
